The data set concerns Hartley guinea pigs. The experiment in a line: Systemic active allergic reaction test in guinea pigs. The class given is in vivo, guinea pig. As to conditions: 40 mg/mL. From the text: Systemic active allergic reaction test in guinea pigs: Hartley guinea pigs, SPF grade, source: Beijing Vital River Laboratory Animal Technology Co., Ltd., animal production license No.: SCXK (JING) 2016-0011, test animal certification No.: No. 110011201110221326, issuer: Beijing Science and Technology Commission, age at the start of administration: 5-6 weeks.
Guinea pigs were sensitized by intraperitoneal injection of the sample of Example 2 and Addaven every other day for three consecutive days. In the allergic reaction test, 0.9% sodium chloride injection (Lot No.: 6B20060706, Shandong Qidu Pharmaceutical Co., Ltd.) was selected as the compatibility solution. Test sample low-dose group was administered with the clinically intended concentration of the test sample solution, and test sample high-dose group was administered with twice the concentration of the test sample solution. The administration volume was 0.5 mL/animal for each group. On the 14th and 21st days after the last sensitization, twice the sensitization dose of the product was intravenously injected for irritation, respectively.
Negative control group: 0.9% sodium chloride injection; […]

Our source for the allergic reactions values is patent US20260216058A1, “TRACE ELEMENT COMPOSITION, PREPARATION METHOD THEREFOR, AND USE THEREOF” (BEIJING ZANGWEIXINKANG PHARMACEUTICAL R&D CO., LTD., priority 2023, published 2026).

Consider bovine serum albumin, for which the allergic reactions entry is, setting by setting: (irritation on the 14th day after the last sensitization) “strongly positive to extremely strong positive”; (irritation on the 21st day after the last sensitization) “strongly positive to extremely strong positive”.
